# Test results as given in IntAct's records for PubMed 19955438.
# B1: 1-phosphatidylinositol 4,5-bisphosphate phosphodiesterase gamma-1 (Bos taurus (Bovine)), P08487 (parent)
# chain: MAGAASPCANGCGPSAPSDAEVVHLCRSLEVGTVMTLFYSKKSQRPERKTFQVKLETRQITWSRGADKIEGAIDIREIKEIRPGKTSRDFDRYQEDPAFRPDQSHCFVILYGMEFRLKTLSLQATSEDEVNMWIRGLTWLMEDTLQAATPLQIERWLRKQFYSVDRNREDRISAKDLKNMLSQVNYRVPNMRFLRERLTDLEQRTSDITYGQFAQLYRSLMYSAQKTMDLPFLEASALRAGERPELCRVSLPEFQQFLLEYQGELWAVDRLQVQEFMLSFLRDPLREIEEPYFFLDEFVTFLFSKENSIWNSQLDEVCPDTMNNPLSHYWISSSHNTYLTGDQFSSESSLEAYARCLRMGCRCIELDCWDGPDGMPVIYHGHTLTTKIKFSDVLHTIKEHAFVASEYPVILSIEDHCSIAQQRNMAQYFKKVLGDTLLTKPVDIAADGLPSPNQLKRKILIKHKKLAEGSAYEEVPTSVMYSENDISNSIKNGILYLEDPVNHEWYPHYFVLTSSKIYYSEETSSDQGNEDEEEPKEASGSTELHSNEKWFHGKLGAGRDGRHIAERLLTEYCIETGAPDGSFLVRESETFVGDYTLSFWRNGKVQHCRIHSRQDAGTPKFFLTDNLVFDSLYDLITHYQQVPLRCNEFEMRLSEPVPQTNAHESKEWYHASLTRAQAEHMLMRVPRDGAFLVRKRNEPNSYAISFRAEGKIKHCRVQQEGQTVMLGNSEFDSLVDLISYYEKHPLYRKMKLRYPINEEALEKIGTAEPDYGALYEGRNPGFYVEANPMPTFKCAVKALFDYKAQREDELTFTKSAIIQNVEKQEGGWWRGDYGGKKQLWFPSNYVEEMVSPAALEPEREHLDENSPLGDLLRGVLDVPACQIAVRPEGKNNRLFVFSISMASVAHWSLDVAADSQEELQDWVKKIREVAQTADARLTEGKMMERRKKIALELSELVVYCRPVPFDEEKIGTERACYRDMSSFPETKAEKYVNKAKGKKFLQYNRLQLSRIYPKGQRLDSSNYDPLPMWICGSQLVALNFQTPDKPMQMNQALFLAGGHCGYVLQPSVMRDEAFDPFDKSSLRGLEPCAICIEVLGARHLPKNGRGIVCPFVEIEVAGAEYDSIKQKTEFVVDNGLNPVWPAKPFHFQISNPEFAFLRFVVYEEDMFSDQNFLAQATFPVKGLKTGYRAVPLKNNYSEGLELASLLVKIDVFPAKQENGDLSPFGGASLRERSCDASGPLFHGRAREGSFEARYQQPFEDFRISQEHLADHFDGRDRRTPRRTRVNGDNRL
# Variants of: B1
# Details: with itk_mouse Itk
row,Variant,effect of a mutation on the interaction
1,K749A;R753A,decreasing interaction
2,R748A;K751A,decreasing interaction
3,E709A;K711A,disrupting interaction
